Measurements: publication PMC4658161, “Mutually Exclusive Roles of SHARPIN in Integrin Inactivation and NF-κB Signaling” (PLoS ONE, 2015)
Changes are numbered by the printed parent chain.

B1: GST-SHARPIN^WT (natural protein, UniProt Q9H0F6 1-387, looked up)
chain: MAPPAGGAAAAASDLGSAAVLLAVHAAVRPLGAGPDAEAQLRRLQLSADPERPGRFRLELLGAGPGAVNLEWPLESVSYTIRGPTQHELQPPPGGPGTLSLHFLNPQEAQRWAVLVRGATVEGQNGSKSNSPPALGPEACPVSLPSPPEASTLKGPPPEADLPRSPGNLTEREELAGSLARAIAGGDEKGAAQVAAVLAQHRVALSVQLQEACFPPGPIRLQVTLEDAASAASAASSAHVALQVHPHCTVAALQEQVFSELGFPPAVQRWVIGRCLCVPERSLASYGVRQDGDPAFLYLLSAPREAPATGPSPQHPQKMDGELGRLFPPSLGLPPGPQPAASSLPSPLQPSWSCPSCTFINAPDRPGCEMCSTQRPCTWDPLAAAST
notes: also called GST-SHARPIN (full-length); source: E. coli strain Rosetta BL21DE3, purified
B2: GST-SHARPIN^L276A (natural protein, UniProt Q9H0F6 1-387, looked up)
chain: B1 chain with L276A
notes: source: E. coli strain Rosetta BL21DE3, purified

Target: T1, recombinant full-length human ITGAL-ITGB2 (human, UniProt P20701 26-1170; P05107 23-769)
T1 construct: integrin alpha L (ITGAL), human, full-length; integrin beta 2 (ITGB2), human, full-length; also called full-length ITGAL-ITGB2; LFA-1; source: bought: Origene
Test: far-Western; GST-SHARPIN (WT, fragments or point mutants) with recombinant full-length ITGAL-ITGB2 or recombinant RNF31; which partner was on the membrane is not told; performed as described in ref. 5
Conditions: both partners purified

T1 sequence (P20701 26-1170, chain 1 of 2): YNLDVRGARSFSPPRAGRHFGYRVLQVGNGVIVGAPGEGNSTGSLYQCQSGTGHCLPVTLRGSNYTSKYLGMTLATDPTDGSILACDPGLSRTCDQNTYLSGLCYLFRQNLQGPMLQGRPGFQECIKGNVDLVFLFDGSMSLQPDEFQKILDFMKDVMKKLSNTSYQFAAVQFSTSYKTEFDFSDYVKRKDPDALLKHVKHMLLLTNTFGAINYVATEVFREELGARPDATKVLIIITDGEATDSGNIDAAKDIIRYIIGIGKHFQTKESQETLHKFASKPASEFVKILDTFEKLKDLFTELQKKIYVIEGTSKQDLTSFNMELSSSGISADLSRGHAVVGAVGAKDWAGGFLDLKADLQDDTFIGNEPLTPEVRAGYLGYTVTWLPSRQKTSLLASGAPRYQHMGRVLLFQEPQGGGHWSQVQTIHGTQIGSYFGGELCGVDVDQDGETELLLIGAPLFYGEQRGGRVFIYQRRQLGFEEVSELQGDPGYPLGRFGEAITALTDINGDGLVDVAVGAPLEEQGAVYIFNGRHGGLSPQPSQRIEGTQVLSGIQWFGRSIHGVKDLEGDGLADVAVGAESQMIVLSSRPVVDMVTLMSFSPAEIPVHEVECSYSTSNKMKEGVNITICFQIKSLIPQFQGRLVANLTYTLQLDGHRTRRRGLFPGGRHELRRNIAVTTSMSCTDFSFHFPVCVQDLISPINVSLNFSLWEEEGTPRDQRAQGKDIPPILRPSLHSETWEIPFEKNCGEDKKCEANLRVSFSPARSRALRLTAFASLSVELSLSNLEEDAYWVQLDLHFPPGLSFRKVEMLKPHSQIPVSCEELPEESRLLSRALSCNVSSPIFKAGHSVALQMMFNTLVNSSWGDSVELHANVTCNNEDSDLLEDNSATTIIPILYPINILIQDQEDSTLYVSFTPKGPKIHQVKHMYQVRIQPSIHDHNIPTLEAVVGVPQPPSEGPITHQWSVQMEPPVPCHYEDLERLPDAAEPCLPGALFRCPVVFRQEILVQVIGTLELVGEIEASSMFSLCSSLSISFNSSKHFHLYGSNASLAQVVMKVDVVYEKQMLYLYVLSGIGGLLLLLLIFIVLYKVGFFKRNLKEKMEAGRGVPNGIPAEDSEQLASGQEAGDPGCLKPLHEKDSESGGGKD
T1 sequence (P05107 23-769, chain 2 of 2): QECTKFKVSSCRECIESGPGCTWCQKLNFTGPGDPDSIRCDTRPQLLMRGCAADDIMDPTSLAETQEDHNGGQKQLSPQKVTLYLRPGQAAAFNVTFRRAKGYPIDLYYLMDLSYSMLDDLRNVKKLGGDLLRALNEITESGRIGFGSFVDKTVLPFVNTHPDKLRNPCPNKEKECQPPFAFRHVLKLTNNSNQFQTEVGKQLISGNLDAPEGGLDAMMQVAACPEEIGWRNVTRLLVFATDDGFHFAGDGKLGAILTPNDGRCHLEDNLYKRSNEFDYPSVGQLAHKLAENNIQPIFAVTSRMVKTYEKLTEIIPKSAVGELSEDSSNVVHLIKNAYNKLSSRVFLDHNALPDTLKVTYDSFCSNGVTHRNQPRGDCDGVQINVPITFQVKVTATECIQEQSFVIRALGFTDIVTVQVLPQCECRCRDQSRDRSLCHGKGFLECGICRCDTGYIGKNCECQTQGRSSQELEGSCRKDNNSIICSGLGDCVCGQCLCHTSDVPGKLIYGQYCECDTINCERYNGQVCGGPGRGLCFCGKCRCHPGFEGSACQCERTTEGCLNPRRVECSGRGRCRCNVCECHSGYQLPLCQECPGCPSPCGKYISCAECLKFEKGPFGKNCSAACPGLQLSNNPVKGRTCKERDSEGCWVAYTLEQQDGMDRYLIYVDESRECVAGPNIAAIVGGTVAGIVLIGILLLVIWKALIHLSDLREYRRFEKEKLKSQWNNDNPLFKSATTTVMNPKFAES

| Binder | binding result |
| --- | --- |
| B1 | binds |
| B2 | binds |
